Read-outs that look alike come from different tables or passages of the source. * marks the point of attachment. Palmitoyl = CCCCCCCCCCCCCCCC(=O)*

Common to all, as to assay: cell-based or functional assay
Test [1] concerns the target T1, CXCR4 receptor (human, UniProt P61073 1-352).
In test [2] the target is T1, CXCR4 receptor. The source holds these as a separate data set.
The target of test [3] is T1, CXCR4 receptor. The source holds these as a separate data set.

T1 sequence (P61073 whole entry): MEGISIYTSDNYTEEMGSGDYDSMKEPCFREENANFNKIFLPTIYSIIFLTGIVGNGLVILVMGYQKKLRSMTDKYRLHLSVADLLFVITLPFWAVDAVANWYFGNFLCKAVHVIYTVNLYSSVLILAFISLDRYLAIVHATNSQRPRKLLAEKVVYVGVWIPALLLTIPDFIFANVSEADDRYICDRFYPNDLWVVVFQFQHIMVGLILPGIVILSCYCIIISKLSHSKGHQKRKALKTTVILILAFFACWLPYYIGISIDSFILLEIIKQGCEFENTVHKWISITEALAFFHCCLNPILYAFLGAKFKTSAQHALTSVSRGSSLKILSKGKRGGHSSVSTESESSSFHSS

B1: CXCR4 i4 loop compound 116 (peptide)
peptide: Palmitoyl-GAKFKTSAQHALTSVR-NH2
SMILES: CCCCCCCCCCCCCCCC(=O)NCC(=O)N[C@@H](C)C(=O)N[C@@H](CCCCN)C(=O)N[C@@H](Cc1ccccc1)C(=O)N[C@@H](CCCCN)C(=O)N[C@H](C(=O)N[C@@H](CO)C(=O)N[C@@H](C)C(=O)N[C@@H](CCC(N)=O)C(=O)N[C@@H](Cc1c[nH]cn1)C(=O)N[C@@H](C)C(=O)N[C@@H](CC(C)C)C(=O)N[C@H](C(=O)N[C@@H](CO)C(=O)N[C@H](C(=O)N[C@@H](CCCNC(=N)N)C(N)=O)C(C)C)[C@@H](C)O)[C@@H](C)O
For B1, in the test with CXCR4 receptor [1], the “AUC (% of Vehicle), CHTX, CEM, 1.0 uM” value is 65.3 % of Vehicle; the “Max (% of Vehicle), CHTX, CEM, 1.0 uM” value is 80.5 % of Vehicle; the “Peak Ratio, CHTX, CEM, 1.0 uM” value was 1.

B2: CXCR4 i4 loop compound 115 (peptide)
peptide: Palmitoyl-GAKFKTSAQHALTSVSRGSSLK-NH2
SMILES: CCCCCCCCCCCCCCCC(=O)NCC(=O)N[C@@H](C)C(=O)N[C@@H](CCCCN)C(=O)N[C@@H](Cc1ccccc1)C(=O)N[C@@H](CCCCN)C(=O)N[C@H](C(=O)N[C@@H](CO)C(=O)N[C@@H](C)C(=O)N[C@@H](CCC(N)=O)C(=O)N[C@@H](Cc1c[nH]cn1)C(=O)N[C@@H](C)C(=O)N[C@@H](CC(C)C)C(=O)N[C@H](C(=O)N[C@@H](CO)C(=O)N[C@H](C(=O)N[C@@H](CO)C(=O)N[C@@H](CCCNC(=N)N)C(=O)NCC(=O)N[C@@H](CO)C(=O)N[C@@H](CO)C(=O)N[C@@H](CC(C)C)C(=O)N[C@@H](CCCCN)C(N)=O)C(C)C)[C@@H](C)O)[C@@H](C)O
As for B2, in the test with CXCR4 receptor [1], the “AUC (% of Vehicle), CHTX, CEM, 1.0 uM” value is 77.5 % of Vehicle; the “Max (% of Vehicle), CHTX, CEM, 1.0 uM” value is 92.1 % of Vehicle; the “Peak Ratio, CHTX, CEM, 1.0 uM” value came to 1.

B3: CXCR4 i1 loop compound 136 (peptide)
peptide: Palmitoyl-MGYQKKLASMTDKYRL-NH2
SMILES: CCCCCCCCCCCCCCCC(=O)N[C@@H](CCSC)C(=O)NCC(=O)N[C@@H](Cc1ccc(O)cc1)C(=O)N[C@@H](CCC(N)=O)C(=O)N[C@@H](CCCCN)C(=O)N[C@@H](CCCCN)C(=O)N[C@@H](CC(C)C)C(=O)N[C@@H](C)C(=O)N[C@@H](CO)C(=O)N[C@@H](CCSC)C(=O)N[C@H](C(=O)N[C@@H](CC(=O)O)C(=O)N[C@@H](CCCCN)C(=O)N[C@@H](Cc1ccc(O)cc1)C(=O)N[C@@H](CCCNC(=N)N)C(=O)N[C@@H](CC(C)C)C(N)=O)[C@@H](C)O
With B3, in the test with CXCR4 receptor [2], the “IC50 (nM), calcium flux, CCRF-CEM” value amounted to 302 nM.

B4: CXCR4 i1 loop compound 135 (peptide)
peptide: Palmitoyl-MGYQKKARSMTDKYRL-NH2
SMILES: CCCCCCCCCCCCCCCC(=O)N[C@@H](CCSC)C(=O)NCC(=O)N[C@@H](Cc1ccc(O)cc1)C(=O)N[C@@H](CCC(N)=O)C(=O)N[C@@H](CCCCN)C(=O)N[C@@H](CCCCN)C(=O)N[C@@H](C)C(=O)N[C@@H](CCCNC(=N)N)C(=O)N[C@@H](CO)C(=O)N[C@@H](CCSC)C(=O)N[C@H](C(=O)N[C@@H](CC(=O)O)C(=O)N[C@@H](CCCCN)C(=O)N[C@@H](Cc1ccc(O)cc1)C(=O)N[C@@H](CCCNC(=N)N)C(=O)N[C@@H](CC(C)C)C(N)=O)[C@@H](C)O
B4: the “IC50 (nM), calcium flux, CCRF-CEM” value with CXCR4 receptor [2] amounted to 175 nM.

B5: Compound No. 38 (Pal-MGYQKKLRSMTDKYRL-amide) (peptide)
peptide: Palmitoyl-MGYQKKLRSMTDKYRL-NH2
SMILES: CCCCCCCCCCCCCCCC(=O)N[C@@H](CCSC)C(=O)NCC(=O)N[C@@H](Cc1ccc(O)cc1)C(=O)N[C@@H](CCC(N)=O)C(=O)N[C@@H](CCCCN)C(=O)N[C@@H](CCCCN)C(=O)N[C@@H](CC(C)C)C(=O)N[C@@H](CCCNC(=N)N)C(=O)N[C@@H](CO)C(=O)N[C@@H](CCSC)C(=O)N[C@H](C(=O)N[C@@H](CC(=O)O)C(=O)N[C@@H](CCCCN)C(=O)N[C@@H](Cc1ccc(O)cc1)C(=O)N[C@@H](CCCNC(=N)N)C(=O)N[C@@H](CC(C)C)C(N)=O)[C@@H](C)O
In the case of B5, the “IC50 (nM), calcium flux, CCRF-CEM” value in the test with CXCR4 receptor [2] was 98 nM. Besides, in the test with CXCR4 receptor [3], the “AUC (% of), CHTX, SUP B-15, 1.0 uM” value turned out to be 32.4%; the “Max (% of), CHTX, SUP B-15, 1.0 uM” value was 49.6%; the “Peak Ratio, CHTX, CEM, 1.0 uM” value turned out to be 0.2; the “Peak Ratio, CHTX, SUP B-15, 1.0 uM” value turned out to be 0.2.
